Test results: patent US20260117274A1, “ORTHOGONALLY CROSSLINKED PROTEINS, METHODS OF MAKING, AND USES THEREOF” (The Research Foundation for The State University of New York, priority 2022, published 2026)

What was measured:
[1] = test system: HeLa cells; assay: Flow cytometry uptake of AF488-labeled NSa1(+10) proteins in HeLa cells; assay type: cell-based; details: for percentage of fluorescent cells / MFI(R-1) Trial 1 / MFI(R-1) Trial 2 / MFI(R-1) Trial 3: 4 hours; for MFI(R-1) Trial 1 / MFI(R-1) Trial 2 / MFI(R-1) Trial 3: Protein 500 nM, 37°C
Description: (§1) To assess cellular uptake of the supercharged NSa1 proteins, we first removed the N-terminal His-tag after TEV cleavage to obtain two intact NSa1(+10) mutants encoding either BocK or CATK-1. We then reacted the mutants with Alexa Fluor 488-NHS modest labeling yield of 20-23% (FIG. 22). We then carried out a flow cytometry assay to quantify the uptake efficiency of the NSa1(+10) mutants. In brief, HeLa cells were treated with 100 or 500 nM of NSa1(+10) proteins at 37° C. for 4 hours. After washing cells three times with PBS containing 20 U/mL heparin to remove the surface-bound proteins, cells were collected and analyzed by flow cytometry. We observed significant monobody uptake when protein concentrations reached 500 nM. […] Since the kinetically stable protein folds show enhanced proteolytic resistance due to their rigid conformations with limited local openings, we assessed the effect of orthogonal crosslinking on proteolytic stability of the monobody. Thus, we incubated the CATK-1-crosslinked NSa1(+10) with cathepsin B ¾ an enzyme responsible for the degradation of protein cargoes in the endosomes ¾ and monitored monobody stability by mass spectrometry.
Fluorescent labeling of NSa1 and flow cytometry. After TEV-cleavage and further cation exchange chromatography, the purified NSa1 proteins were buffer exchanged into the basic buffer (100 mM Pi, 450 mM NaCl, pH 8.3), and then incubated with AF488-NHS (Lumiprobe) (2-fold molar, optimized to afford non-labeled and mono-labeled protein as major species) at 4° C. with gentle shaking in darkness overnight. Then, thorough dialysis was employed to remove excess dye and protein concentrations were determined by Nanodrop (eNSa1=28880 M^−1 cm^−1, eNSa1-plus10=27390 M^−1 cm^−1; CF280=0.11; Aprotein=A280−A493*CF280).
HeLa cells were seeded in a 48-well plate and grown in DMEM supplemented with 10% FBS and 10 μg/mL Gentamycin (Gibco) and 2 μg/mL Plasmocin at 37° C., 5% CO2 until ˜80% confluency. Cells were washed twice with pre-warmed PBS before switching to serum-free DMEM with Alexa-488 labeled protein. Cells were incubated at 37° C. for 4 hours. The cells were washed three times with PBS (including 20 U/mL heparin), trypsinized, and collected with 1.5 mL tubes. After brief centrifugation (400 g, 5 min) at room temperature, cells were collected and resuspended in PBS for flow cytometry analysis.

[2] = Intramolecular (inter-strand) crosslinking yield of nanobody/monobodies by mass spectrometry; details: UAA-encoded monobodies, MS characterization (Table 5)
Source text: To probe whether CATK-1 is suitable for inter-strand cross-linking in proteins containing the disulfide bond, we selected a small protein called nanobody NB1, a prototypical single-chain VHH antibody that binds specifically to GFP protein. Based on NB1 structure, there is one disulfide bond formed between Cys-24 and Cys-98, close to a proposed orthogonal crosslinking site at Val-4 and Tyr-106 (FIG. 5a, left). To test orthogonal crosslinking, we placed CATK-1 at Val-4 position to target Tyr-106 located 5.6 Å away on the opposing strand. The BocK- and CATK-1-encoded NB1 were successfully expressed at yields of 14.3 mg L^−1 and 3.5 mg L^−1, respectively (FIG. 5b, left). […] Separately, we also examined the utility of CATK-1 in effecting intramolecular crosslinking in an antibody mimic called monobody. Due to their lack of cysteine residues, small size (˜10 kDa), and evolvable binding affinity and specificity, monobodies represent an ideal protein scaffold for targeting protein-protein interactions in the cytosols of mammalian cells. However, monobodies are cell impermeable, severely limiting their potential. One strategy to potentially overcome this limitation is to combine protein surface supercharging with orthogonal crosslinking to increase stability in the endosomes and thus improve cytosolic delivery. To this end, we designed an overall +10 charged monobody NSa1, termed NSa1(+10), using the Supercharge protocol on ROSIE Rosetta Online Server and added an amber codon at Ala-13 position. Based on the NSa1 structure, A13CATK-1 is well-positioned to react with the proximal Tyr-92 on the opposing strand at C-terminus (FIG. 5a, right). Accordingly, the wild-type and NSa1(+10) mutant proteins encoding CATK-1 or BocK were expressed and purified in good yields (4.1-6.9 mg L^1; FIG. 5b, right). […] The crosslink-containing fragment was identified by LC/MS after trypsin digestion (FIG. 21).
To assess if BeLaK is suitable for orthogonal crosslinking of domain antibodies, we selected NSa1, a monobody-based SHP2 inhibitor, and placed BeLaK at position-13 of the N-terminal β-strand. A panel of supercharged NSa1 mutants carrying overall charges of +6, +8, +11, and +18, respectively, were designed using Supercharge protocol on ROSIE Rosetta Online Server with native NSa1 (˜2 charge) as a template. […] Thus, the supercharged monobodies encoding either BeLaK or BocK were expressed in good yields (2.2˜7.2 mg L^−1; FIG. 42). […] Furthermore, as the positive charge increases, the mobility decreases, likely due to reduced overall negative charge after association with the SDS molecules. MS analysis further confirmed the identities of the supercharged NSa1 mutants (FIG. 34c). Since the unreacted BeLaK-encoded monobodies share the same mass as the crosslinked ones, we treated the purified monobodies with excess β-mercapto-ethanol for 7 days, which accelerates the hydrolysis of the unreacted β-lactam and in turn adds +18 Da to protein mass, and monitored the intact mass change. Using this method, we determined orthogonal crosslinking yields to range from 5% for native NSa1 to more than 50% for +8/+11/+18 mutants (FIG. 42). We attribute the higher yields to the increased conformational dynamics, which promotes proximity-driven crosslinking reactions. The crosslinking sites in +11 and +18 mutants were mapped to Lys-21 and Lys-19, respectively, residues on the nearby β-strand, based on the identified fragment masses after trypsin digestion (FIG. 34d, FIG. 50).
Crosslinking yield determination of BeLaK-encoded NSa1 variants. To quantify the extent of crosslinking, β-mercaptoethanol (20 mM) was added at a final concentration of 2.58 mM (100 equiv, 3 μL) to a solution of purified NSa1 variants (25 μM, 30 μL) in elution buffer (50 mM Na2HPO4, pH=7.4, 300 mM NaCl, 250 mM imidazole). The mixture was incubated at 37° C. overnight. Afterwards, the mixture was removed from the incubator and allowed to incubate at 25° C. for 1 week.

[3] = target: T1, Cathepsin B (Homo sapiens, UniProt P07858); assay: NSa1 proteolytical stability assay (QTOF-LC/MS); assay type: in vitro ADME
T1 construct: purchased Novus Biologicals
Description: as §1
NSa1 proteolytical stability assay. In a 1.5-mL microcentrifuge tube, TEV-cleaved, purified NSa1 (1.5 μM in 50 mM phosphate, 500 mM NaCl, pH 7.0) was incubated with Cathepsin B (Novus Biologicals; 0.065 μM) at 37° C. […]

B1: NSa1(+10)-A13BocK: non-crosslinked +10 charged monobody NSa1 encoding BocK at position 13; SEQ ID NO: 50 (protein)
chain: MGSSHHHHHHSSGTENLYFQGVSSKPTKLRVVRXTPTSLKIKWDAPAKTVDYYVITYGETGRGGYAWQRFEVPGSKRTATIKGLKPGVDYTITVYAGYKGYPTYYSSPISINYRT
modifications: BocK non-natural residue at position 13; VARIANT 34 X is 1/2-carboxy-4-aryltriazole lysine or Ne-(tert-butoxycarbonyl) lysine
[1]; 500 nM
  percentage of fluorescent cells: 13.6%
[1]
  MFI(R-1) Trial 1: 6726.24
  MFI(R-1) Trial 2: 6507.23
  MFI(R-1) Trial 3: 6855.84

B2: NSa1(+5)-A13BeLaK: supercharged NSa1 monobody encoding BeLaK; SEQ. ID. NO: 6 (protein)
chain: MGSSHHHHHHSSGTENLYFQGVSSKPTKLRVVRXTPTSLKISWDAPAVTVDYYVITYGEKGSGGYAWQEFEVPGSKRTATISGLKPGVDYTITVYAGYKGYPTYYSSPISINYRT
modifications: BeLaK non-natural residue at position 13; MOD_RES 34 X is N6-(2-Oxoazetidine-1-carbonyl)-L-lysine
notes: supercharged NSa1 monobody encoding BeLaK; ID; NO: 6
[2]
  X-linking yield: 43%

B3: NSa1(+10)-A13CATK-1: +10 charged monobody NSa1 encoding CATK-1 at Ala-13, crosslinked to Tyr-92; SEQ ID NO: 50 (protein)
chain: MGSSHHHHHHSSGTENLYFQGVSSKPTKLRVVRXTPTSLKIKWDAPAKTVDYYVITYGETGRGGYAWQRFEVPGSKRTATIKGLKPGVDYTITVYAGYKGYPTYYSSPISINYRT
modifications: CATK-1 at Ala13 crosslinked to Tyr92; VARIANT 34 X is 1/2-carboxy-4-aryltriazole lysine or Ne-(tert-butoxycarbonyl) lysine
[1]; 500 nM
  higher mean fluorescence intensity than NSa1(+10)-A13BocK treated cells: 40%
  percentage of fluorescent cells: 14.8%
[1]
  MFI(R-1) Trial 1: 9561.61
  MFI(R-1) Trial 2: 9020.17
  MFI(R-1) Trial 3: 9337.41
[3]; Cathepsin B, 37°C
  half-life relative to non-crosslinked NSa1(+10)-A13BocK: three times longer
[3]; NSa1 1.5 μM with Cathepsin B 0.065 μM at 37°C
  half-life: 2.1 h
